Assay results from patent US20190367609A1 (INNATE PHARMA, published 2019).
Where a chain is given by its changes, count along the chain named.

B1: 17E1 antibody-drug conjugate with PBD dimer (DAR=2) (antibody, V domains shown)
VH: QVQLQQPGSVLVRPGASVKLSCKASGYTFTSSWMHWAKQRPGQGLEWIGHIHPNSGISNYNEKFKGKATLTVDTSSSTAYVDLSSLTSEDSAVYYCSRGGRFDDWGAGTTVTVSS
VL: DIQMTQSPSSLSASLGERVSLTCRASQDIGSSLNWLQQEPDGTIKRLIYATSRLDSGVPKRFSGSRSGSDYSLTISSLESEDFVDYYCLQYASSPWTFGGGTKLEIK
modifications: PBD dimer through amino-PEG-azide / DBCO-val-ala linker on Q295 (Kabat EU numbering) of each heavy chain; deglycosylated with PNGaseF
B2: 9H11A antibody-drug conjugate with PBD dimer (DAR=2) (antibody, V domains shown)
VH: QVQLQQPGAELVKPGASVKLSCKASGYTFTSYWMHWVKLRPGQGFEWIGEIIPSNGVTNYNEKFKRKATLTVDKSSSTAYMQLSSLTSEDSAVYYCTIRLRYALDYWGQGTSVTVSA
VL: DIQMTQTTSSLSASLGDRVTISCRASQDISNFLNWYQQKPDGTVKLLIYYTSRLHSGVPSRFSGSGSGTDYSLTISNLEQEDIATYFCQQGNTLPPTFGGGTKLEIK
modifications: PBD dimer through amino-PEG-azide / DBCO-val-ala linker on Q295 (Kabat EU numbering) of each heavy chain; deglycosylated with PNGaseF
B3: 9H11B antibody-drug conjugate with PBD dimer (DAR=2) (antibody, V domains shown)
VH: B2 VH
VL: DIVMTQSQKFMSTSVGDRVSVTCKASQNVGTNVAWYQQKPGQSPKALIYSTSFRYSGVPDRFTGSGSGTDFTLTISNVQSEDLAEYFCQQYNSYPFTFGSGTKLEIK
modifications: PBD dimer through amino-PEG-azide / DBCO-val-ala linker on Q295 (Kabat EU numbering) of each heavy chain; deglycosylated with PNGaseF
B4: 8B6A (antibody, V domains shown)
VH: QVQLQQPGSELVRPGASVKLSCKASGYTFTSYWMHWVKQRPGQGLEWIGTIYPGSDITNYDEKFKNKATLTVDTSSSTAYMQLSSLTSEDSAVYYCTRDGRFANWGQGTLVTVSA
VL: EIVLTQSPAITAASLGQKVTITCSASSSVSYMHWYQQKSGTSPKPWIYEISKLASGVPARFSGSGSGTSYSLTISSMEAEDAAIYYCQQWNLPLTFGAGTKLELK
notes: Mouse variable domains; light chain is kappa (VK); also called CHG1-M-H46 8B6-A
B5: 17E1 (antibody, V domains shown)
VH: B1 VH
VL: B1 VL
notes: also called CHG1-M-H46 17E1
B6: 8B6B (antibody, V domains shown)
VH: B4 VH
VL: B1 VL with D1E, R53S, W96Y
notes: Same heavy chain variable domain as 8B6A with a different light chain; also called CHG1-M-H46 8B6-B
B7: 9H11B (antibody, V domains shown)
VH: B2 VH
VL: B3 VL
notes: Same heavy chain variable domain as 9H11A with a different light chain; also called CHG1-M-H46 9H11-B
B8: 9H11A (antibody, V domains shown)
VH: B2 VH
VL: B2 VL
notes: also called CHG1-M-H46 9H11-A

The binders below were run against T1, human NKp46 expressed on cells (human, UniProt O76036 22-304) (assay: cell-based or functional assay).
T1 sequence (O76036 22-304 Q82K limits assumed): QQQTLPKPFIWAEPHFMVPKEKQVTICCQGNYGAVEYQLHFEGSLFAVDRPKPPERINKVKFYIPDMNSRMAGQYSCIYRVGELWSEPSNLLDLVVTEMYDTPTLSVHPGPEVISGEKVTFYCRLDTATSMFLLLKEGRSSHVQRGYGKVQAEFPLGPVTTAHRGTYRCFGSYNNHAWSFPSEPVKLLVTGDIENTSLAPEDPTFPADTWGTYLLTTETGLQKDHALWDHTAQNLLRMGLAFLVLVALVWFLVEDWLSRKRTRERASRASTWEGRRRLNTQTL

Binder | IC50 for cytotoxicity towards SNK6 cells (Cell Titer Glo, 72 h) [ng/mL]
B1 | 0.01
B2 | 0.02
B3 | 0.01

What follows are binders tested against T2, Macaca fascicularis NKp46 expressed on CHO cells (Macaca fascicularis, UniProt Q95JB9 22-306) (assay: flow cytometry on CHO cells transfected with cyno NKp46, dose range, anti-human IgG1-PE detection).
T2 construct: Cloned from Macaca fascicularis cDNA and transfected into the CHO cell line; also called cyno NKp46; CHO-cynoNKp46
T2 sequence (Q95JB9 22-306 limits assumed): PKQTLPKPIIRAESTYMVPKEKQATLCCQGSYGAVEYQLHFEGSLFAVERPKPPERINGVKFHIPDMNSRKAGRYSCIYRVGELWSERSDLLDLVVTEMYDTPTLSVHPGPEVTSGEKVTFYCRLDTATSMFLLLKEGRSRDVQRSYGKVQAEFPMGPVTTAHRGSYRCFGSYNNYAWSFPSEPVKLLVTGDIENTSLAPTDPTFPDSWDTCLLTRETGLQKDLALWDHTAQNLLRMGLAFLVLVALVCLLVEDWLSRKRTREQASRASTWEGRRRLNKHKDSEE
Experimental: The antibodies (including 8B6A, 8B6B, 9H11A, 9H11B and 17E1) were assessed for binding to Macaca fascicularis NKp46 (cyno NKp46) protein. The sequence of cyno NKp46 (shown below) was cloned from Macaca fascicularis cDNA and transfected into the CHO cell line. The binding of CHG1-M-H46 to CHO-cynoNKp46 was analyzed by flow cytometry.
Flow cytometry: CHO cells were harvested and stained in PBS 1×/BSA 0.2%/EDTA 2 mM buffer during 30 minutes at 4° C. using a dose-range of the anti-NKp46 mAbs. After two washes in staining buffer, cells incubated with anti-NKp46 antibodies were stained for 30 min at 4° C. with mouse anti-human IgG1-PE monoclonal antibodies from Miltenyi (dil 1/10). After two washes, stainings were acquired on a HTFC Intellicyt and analyzed using ForeCyt software.

EC50 [ng/mL] | Binder
29 | B4
59 | B5
28 | B6
25 | B7
26 | B8

These binders were tested against T1, human NKp46 expressed on cells (assay: flow cytometry on Raji-hNKp46 cells, dose range, anti-human IgG1-PE detection).
Experimental: Flow cytometry: Cells were harvested and stained in PBS 1×/BSA 0.2%/EDTA 2 mM buffer during 30 minutes at 4° C. using a dose-range of the anti-NKp46 mAbs. After two washes in staining buffer, cells incubated with anti-NKp46 antibodies were stained for 30 min at 4° C. with mouse anti-human IgG1-PE monoclonal antibodies from Miltenyi (dil. 1/10). After two washes, the stainings were acquired on the HTFC Intellicyt device and analyzed using the ForeCyt software.

EC50 [ng/mL] | Binder
148 | B4
55 | B5
76 | B6
124 | B7
51 | B8

The binders below were run against T3, Human 6xHis tagged NKp46 recombinant protein (human, UniProt O76036 22-255, limits assumed) (assay: SPR Biacore T100, antibody captured on Protein-G chip, soluble NKp46-His 12.5-200 nM, single cycle kinetics, 1:1 model, monovalent).
T3 construct: also called NKp46-His; soluble NKp46-His recombinant proteins; not shown: 6xHis tag
T3 sequence (O76036 22-255 Q82K limits assumed): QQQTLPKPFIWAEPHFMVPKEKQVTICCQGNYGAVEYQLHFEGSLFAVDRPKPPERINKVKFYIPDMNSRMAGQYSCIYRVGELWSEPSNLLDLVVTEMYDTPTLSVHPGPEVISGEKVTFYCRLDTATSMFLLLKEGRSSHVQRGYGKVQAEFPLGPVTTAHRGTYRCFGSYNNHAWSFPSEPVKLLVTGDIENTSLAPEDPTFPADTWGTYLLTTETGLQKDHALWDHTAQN
Experimental: SPR measurements were performed on a Biacore T100 apparatus (Biacore GE Healthcare) at 25° C. In all Biacore experiments HBS-EP+ (Biacore GE Healthcare) and NaOH 10 mM NaCl 500 mM served as running buffer and regeneration buffer respectively. Sensorgrams were analyzed with Biacore T100 Evaluation software. Protein-G was purchase from GE Healthcare and Anti-His antibody from QIAGEN. Human 6×His tagged NKp46 recombinant proteins (NKp46-His) were cloned, produced and purified at Innate Pharma.
Affinity study has been performed using the Protein-G chip. Monovalent affinity study was done following the Single Cycle Kinetic (SCK) protocol. Five serial dilutions of soluble NKp46-His recombinant proteins ranging from 12.5 to 200 nM were injected over the captured Anti-NKp46 anti bodies (without regeneration) and allowed to dissociate for 10 min before regeneration. For each antibody, the entire sensorgram was fitted using the 1:1 SCK binding model.

Kd [nM] | koff [s⁻¹] | kon [M⁻¹ s⁻¹] | Binder
4.08 | 0.00109 | 267000 | B4
4.07 | 0.0011 | 271000 | B6
0.892 | 0.000253 | 283000 | B7
0.728 | 0.000199 | 273000 | B8
